Results from patent US20040132121A1, “Method of identifying antibacterial compounds” (priority 2000, published 2004).
Values joined by “and” are separate entries in the source; they are usually repeats but may differ in a detail not shown here. Identical values can stand only once.

Target: Escherichia coli β subunit of DNA Polymerase III (β protein) (Escherichia coli), P0A988
Sequence (P0A988 whole entry): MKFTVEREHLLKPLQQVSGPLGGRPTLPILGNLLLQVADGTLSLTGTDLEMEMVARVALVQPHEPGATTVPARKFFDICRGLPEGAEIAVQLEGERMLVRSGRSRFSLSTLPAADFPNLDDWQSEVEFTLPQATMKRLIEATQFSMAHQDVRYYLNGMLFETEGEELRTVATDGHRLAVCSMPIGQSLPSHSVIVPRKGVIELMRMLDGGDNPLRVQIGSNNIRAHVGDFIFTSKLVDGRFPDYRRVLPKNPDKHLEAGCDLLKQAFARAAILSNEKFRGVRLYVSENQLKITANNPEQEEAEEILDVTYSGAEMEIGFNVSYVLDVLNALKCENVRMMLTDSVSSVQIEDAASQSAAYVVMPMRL

EAQLDLFDS (modifications not checked) [peptide 112d … (UmuC1, native flanking sequences)]
IC50: 1 µM and 3.6 µM
